The data set is described as follows: soluble on expression in E. coli; label from the status in PepcDB or PDB records.
As to “MDKKPSKKKVAIIGGGVAGSTIAMYLSKFDIEIDLFEQGTSLVNGPPICHLHAGGNLYREISDEQCIALLTESIQTAQFFPHSLNIRPTIIAVPKDDRAEASDLLPRLNLLQKHYLELIEQSKKNEVFGRPEDYFTTFTKQELFEIAKLEPTNQPRSMTEWMIPFAKTTDLEQIKYPVVIVQEYGLSVFRMASTAQLVLSEQSNVNLHLSCRVEKLNKQDNGNWFLSFSNSDTVTSCNFDYVINCAGFRTGIIDDLAQQQTKRLVEFKAAYVTHWNSDFFGKWPEVIFHGERGTPKGMAQLTPYPNGYFQLHGMTEEITLFKDGLSRSSELSSQPQLPEKFINKITNGWKESIQQERTEKAIKHLSQFISSFETASTAGKPLYGAQQIPGDDITLRAATINYDGHGYFRAEIVKASSAIECAKQIAQTIKLSTEINTLTQPSNDDVCHLAEQFAIERGYPVELAQTYLEHHHHHH”, the “soluble on expression in E. coli” value was “not soluble”.
On to “MDKLDTLTLFVRIVERGSFSAAAADLGVSRPVATAAIKALEVSLGARLLHRTTRHVRPTAEGSLYYQRCVSILAALEEANRSAGGSISGTIRVDVAGNLARTLLLPALPQFLARYPDITLQIGESERDVDLVREGVDCVIRGGHLPDSEMICRPLAGLQEITCASPTYLARYGTPHTIEGLTGHVMIGFVSSRTQRTLPLSFTQDGRQSEVSLPCRLLTSDADVGAEAARLGFGLYQAPLPRLEADLASGALTEVLADFRPAPLPLSLLYPSNRQLSARVQVFIDWVTALMKPPLAQQASGRLK”, for which the “soluble on expression in E. coli” value is on record as “not soluble”.
Turning to “MDKLESNKKAPLYQQLYDAILNKVRSGEYQVGEKIPSEEQLMTIYGVSRVTVRNAIKQLVDENILIKRHGKGTFVSMPSYVESMTAGGSFTESGLKMNRKPTTKIISICLKKATGHVAEALGVEKATEVIVIERLRSLDNMPAIFEIDYFRKEDQFMLDLELTDTSLLDILRQYRGVIASYFDNIIEIALADEKLAEALAISEEEALVKINQTVVDNDNQILYFNEQYILSESYKVAIRSYNK”, the “soluble on expression in E. coli” value is “not soluble”.
For “MDKQKVALVLSMGGARGIAHIGVIEELLRHNFEITSIAGSSMGAMVGAMYASGKLEECKEWLYSWDKRKMWELADLTLSRDGLVKGDRFIKELKQIIPVMNIEDLPIPYVAMATDIVCDQEVRFDSGNLYDAIRATISIPMLFRPLRKDGMVLIDGGILNPLP”, the “soluble on expression in E. coli” value is given as “not soluble”.
Turning to “MDKRLLKRLSAPLLAAALWTIPLHSHADTQPLTSQDTKLLTSQIVDQYAEHIFYNSGAVGMALVVIDNNQVVNRSFGETQPGNNIRPRPDSLIRIASITKLMTSEIMVKLADDGIVKLTDPLKKYAPKGVNVPSYSAKQPIRLLHLASHTSGLPREQPGGPQKRPVFTWPTKDNRWQWLKLAKVTVPPGVKAAYSNLAYDLLADALSRAAGKPYAHLLRDKITAPLGMKNTTLTPTAEQCKRLMIGVGSSRCGNTVAAAGSGGIYSTPEDMQHWMQQFLASDNSAPKRSAKREQALYFQRGDLVSLKGMDVAGQADALGLGWVYMAPKADLPGIMQKTGGGGGFITYMAMVPEKNIGVFVVVTRSQLTKFSNMSDGVNQLVAELVKNH”, the “soluble on expression in E. coli” value is listed as “not soluble”.
Next, “MDKTKLYPEAPLTSSQWGELDELVIETARRQLVGRRFIDLYGPLGEGVQSVANDIYMNPEQGDMSFHGKELSLSEPARRVHLTIPLLYKDFILYWRDIEQAKQLGSPIDFSAAANAAQQCALLEDDLIFNGSTEFDVPGIMNVKGKIAHIRSDWMKSGNAFTDVVEARNKLLQLGHTGPYALVLSPELYALIHRVHEGTHVLEIEHIRELMTAGIYQTPVIKGKRGVVIDTGRQNIDLAVAADMQTAFLDTENMNYLFRVYESVVPRIKRPSAICTLEDPNESA”: “not soluble”; “MDLERLAQRLEGLRGYLDIPQKETRLKELERRLEDPSLWNDPEAARKVSQEAARLRRTVDTFRSLESDLQGLLELMEELPAEEREALKPELEEAAKKLDELYHQTLLNFPHAEKNAILTIQPGAGGTEACDWAEMLLRMYTRFAERQGFQVEVVDLTPGPEAGIDYAQILVKGENAYGLLSPEAGVHRLVRPSPFDASGRRHTSFAGVEVIPEVDEEVEVVLKPEELRIDVMRASGPGAQGVNTTDSAVRVVHLPTGITVTCQTTRSQIKNKELALKILKARLYELERKKREEELKALRGEVRPIEWGSQIRSYVLDKNYVKDHRTGLMRHDPENVLDGDLMDLIWAGLEWKAGRRQGTEEVEAE”: “soluble”; “MDLFKRKVKEWVYSLSTDDHYAEYNPDETPTFNMGKRLNSNNGQVNPSQMHLNSVDEEMSMGFQNGVPSNEDINIDEFTSTESNDGVSETLLAWRHIDFWTSEHNPDLNATLSDPCTQNDITHAEEDLEVSFPNPVKASFKIHDGQEDLESMTGTSGLFYGFQLMTLDQVVAMTQAWRNVAKNLNKRSQQGLSHVTSTGSSSSMERLNGNKFKLPNIPDQKSIPPNAVQPVYAHPAWIPLITDNAGNHIGVDLAPGPNGKYAQIITFGRDFDTKFVIAENWGEFLLSFANDLEAGNWYLVDDNDDYFSGDGELVFRDKKSNGPIQDYFEVLKRRTWIKYQENLRSQQQKSQPDTSLQEQKYVPASQKKVAAEQPSTLNAESIKGEDSGSADVQSVQDHESVKIVKTEPSEAETTTVNTESLGQAEHEIKADNVDIKQESERKEDEKQPKVEEKEHVENEHVTESAKKDDDVNKQTEEMNKKEENEIRSDDAKVEEAREEFENIAL”: “soluble”.
In the case of “MDLIGLRIRNIRKIKQLTLKEAAKGIISVPYLANIENGVKVASFETLMHIAKRLEIPEEALLIGNEDLNKELLQELKQIFDLLVFSNTKEAGDRLDQIAANVDLLCESPVIELSFYWLQAGFYYKTWEFSKAREIERKYLNSNEKRVVESFPPDLLSYYYYGQAVKHSHATCDYQLAVEYWEKSIDLTDKAAFQVVFQVGLCINYICLNNYEPALKHIECAWNLIKRFPSKDQERITAILYLYGYINFQIGFMTEAKRKFEEVLVFFNMYPEAKTMYSFLVRFKLAEIERVEGNHELFDEKIVCLYEELMAHEASEIGFNNNDYLVITELMVIFAEQGSVLEASNLLAIINKVTEQVMEINFFVTYTETLLLYHQNKQSSYEKKMLDLLKKIDESNDPALIERVKKHASKHFADSTKYKMAYNILA”, the “soluble on expression in E. coli” value was “not soluble”.
“MDLPYYHGCLTKRECEALLLKGGVDGNFLIRDSESVPGALCLCVSFKKLVYSYRIFREKHGYYRIETDAHTPRTIFPNLQELVSKYGKPGQGLVVHLSNPIMR”: the “soluble on expression in E. coli” value was “soluble”.
As for “MDLTLIIDNYDSFVYNIAQIVGELGSYPIVIRNDEISIKGIERIDPDRLIISPGPGTPEKREDIGVSLDVIKYLGKRTPILGVCLGHQAIGYAFGAKIRRARKVFHGKISNIILVNNSPLSLYYGIAKEFKATRYHSLVVDEVHRPLIVDAISAEDNEIMAIHHEEYPIYGVQFHPESVGTSLGYKILYNFLNRV”, the “soluble on expression in E. coli” value is listed as “soluble”.
Turning to “MDMISAFDIFKIGIGPSSSHTVGPMNAGKSFIDRLESSGLLTATSHIVVDLYGSLSLTGKGHATDVAIIMGLAGNSPQDVVIDEIPAFIELVTRSGRLPVTSGAHIVDFPVAKNIIFHPEMLPRHENGMRITAWKGQEELLSKTYYSVGGGFIVEEEHFGLSYDVETPVPYDFHSAGELLKMCDYNGLSISGLMMHNELALRSKAEIDAGFARIWQVMHDGIERGMNTEGVLPGPLNVPRRAVALRRQLVSSDNISNDPMNVIDWINMYALAVSEENAAGGRVVTAPTNGACGIIPAVLAYYDKFRRPVNERSIARYFLAAGAIGALYKMNASISGAEVGCQGEIGVACSMAAAGLTELLGGSPAQVCNAAEIAMEHNLGLTCDPVAGQVQIPCIERNAINAVKAVNAARMAMRRTSAPRVSLDKVIETMYETGKDMNDKYRETSRGGLAIKVVCG”, the “soluble on expression in E. coli” value was “soluble”.
Turning to “MDMVAQALELSRKPHVVIATPGRLADHLRSSNTFSIKKIRFLVMDEADRLLEQGCTDFTVDLEAILAAVPARRQTLLFSATLTDTLRELQGLATNQPFFWEAQAPVSTVEQLDQRYLLVPEKVKDAYLVHLIQRFQDEHEDWSIIIFTNTCKTCQILCMMLRKFSFPTVALHSMMKQKERFAALAKFKSSIYRILIATDVASRGADQPPLPPGAWTSLRYRWSSTTTPPGSPRSTSTESAGRPVQGGRVRPSRW”, the “soluble on expression in E. coli” value is “soluble”.
For “MDNDKKDKIILSGELTNHRFNFTKDGENGYSAYEVDRFLDQLVHTLTHYEAQRNREEEMKTAYEKLFQDRDEILKRCSKLEAELNNFYENGYSNRVLISRVQALENKIESLPSGQNDRLERIEKLLKRVIKHWTDGEDLSYGDFDDDFF”, the “soluble on expression in E. coli” value is listed as “soluble”.
For “MDNFSLLTTPWLPVRFKDGSTGKLAPVDLADENVVDIAATRADLQGAAWQFLLGLLQCSIAPKRYKNWEDIWFDGLHADVLHKALAPLEHAFQFGAETPSFMQDFEPLSGEKVSIASLLPEIPGAQTTKFNKDHFVKRGVTERFCPHCAALALFSLQLNAPAGGKGYRTGLRGGGPLTTLVELQEYQGERQTPLWRKLWLNVMPQDTADLPLPDQCDATVFPWLAATRTSEQANAVTTPEQVNKLQAYWGMPRRIRLDFATLQSGCCDICGAESDELLGFMTVKNYGVNYDGWRHPLTPYRAPVKDQNAFFSVKPQPGGLIWRDWLGLSQNNQTEANYESPAQVVKVFNARSLTDVKAGIWGFGADFDNMKIRCWYEHHFPLLMTEGLIPDLRKAVQTAARLLSLLRSALKEAWFADAKGARGDFSFIDIDFWNLTQGRFLNLIHDLENGHKPDERLNKWQRELWLFTRHYFDDHVFTNPYESSDLERIMTARKKYFTTSAEKQSAKAAKAKKQEAAE”, the “soluble on expression in E. coli” value is “not soluble”.
Next, “MDNIVTESIKFESEPNYLQRGYHLFDISFLNGLTCVITNKIETDEIHLKIKLDWDERDIEKITGFIQLSYDGHQLKPIDSNFDKRGGICTIIVPKFLYEYRWSFSFNLKLHRDPAKPPQISNDLKSQVSYDTMFEPSRKHDAVLLIGEKKLHVNKAFLSYHSDYFSDLFAEKVDEKNGIPIENVTYENFGLLMSVIYPEAVFSNHQNAEVLLELGNRFKIPAVMRHVENQIVGDTTKFPNKRLISLAEKYGLQKLLAMEIQKMKSFDQAKKFKGSDDYLQLSDATKAKIFDRLIELS”: “not soluble”; “MDNKALLTHVDINNVVCAMPLPYTRLYEGLASGLKAQFDGIPFYYAHMRGADIRVECLLNGVYDMAVVSRLAAESYLTQKGLCLALELGPHTYVGEHQLICRKGESANVKRVGLDNRSADQKIMTDVFFGGSDVERVDLSYHESLQRIVKGDVDAVIWNVVAENELTMLGLEATPLTDDPRFLQATEAVVLTRVDDYPMQQLLRAVVDKHALLAHQQRVVSGEQEPSY”: “soluble”; “MDNKIVYVVSDSVGETADLVVRAAMGQFPFAPDIRRVPYVEDTGTLKEVISIAKSNQALICFTLVKPDMRQYLVTEAAKEGVEAYDIIGPLIDQIEEITGQVPRYEPGVVRRLDEEYFKKIEAIEFAVKYDDGRDARGILKADIVLIGISRTSKTPLSQYLAHNKRLKVANVPLVPEVDPPEELYQVAKEKCFGLKITPEKLNHIRKERLKSLGLSDGATYANINRIKEEIDHFENVVSKINCQVIDVSNKAIEETANIIVNAVQNQKMFMAGDPLEHHHHHH”: “soluble”.
Regarding “MDNLKDFKNEALVVTNASDGNTPHIVQGIEPDGSLRTKPLAQAKPSETFLHIDRNKSVIGTFFSNMNRQYDRPSDFRFYHLPVEMLSAAKDLVEIFKFPEENGQLLSNYAIDIRQPAQEQSITGDTPQQTTRWGVDEVDWQQLARMGVTPESLGETGMQRLLNGHESAVLDIRISFEGIDFETPACIRLVESAGGKPVLNVECCKRYPELDRPYMGTELSPEVKENLSRSNNAGCVVELELAGGVREPCLLSLNPKTNRLHHVPVSEITIPQEVNRVRLSDDQTTRLARGESVLVENMWSEKKQGYYDARLQYNVCKGGFTYDFRGLNRKQAQSETQMRSRELVIPQVLKGVGLTPEVREKLAAGKTVHIKDMTDNEGNLFSAFVRVNHERAKFDFFKWNPDKSKKQGQSQQAAVRQEGTKPENTVSRNRPVQKTDKKGVSI”, the “soluble on expression in E. coli” value was “not soluble”.

(Values after the DeepSol protein solubility set.)
